Test results reported in patent US20140287419A1, “Compositions Having Dicamba Decarboxylase Activity and Methods of Use” (priority 2013, published 2014).
Where a chain is given by its changes, count along the chain named.

B1: 121 (protein)
chain: MAIIDCHGHYTTTPKGVEDYRNAQKAAVAKDPSFKGEKGQVVVSDDEIRESIENNQLKMQRERGTDLTIFSPRWDAGGHHIGNEYTSQFWTEHQNDLIRRVCDLFPKNFAPVAQLPQSPGVDPAKSVPEIVRTVEQMGFIGINLNPDPSGGYWKDTSLADRAFYPIYEKMVEYDIPAMIHPRLACNACFHTGLSVGLGADTTGFQQLIMSDVFKDFPSLKIIIPHGGGAVPYHWGRFRGLMQDQGYAPLEESALKNIYFDTCVYHQRGIDLLLDIVPTQNILFASEMIGAVRGIDPETGHNFDDTKRYIDNNTALNAEEKAMIFEGNARRVFSRLKTD
modifications: Dicamba decarboxylase variant clone DC.12.014
B2: 116 (protein)
chain: MAQGKVALEEHFAIPETLQDAAGFVPGDYWKELQHRLLDIQDRRVRLMDEHGIETMILSLNAPAVQAIADSTRANETARRANDFLAEQVAKQPTRFRGFAALPMQDPELAARELERCVKELGFVGALVNGFSQDNRSAVPLYYDMAQYWPFWETVQALDVPFYLHPRNPLPSDARIYDGHAWLLGPTWAFGQETAVHALRLMGSGLFDKYPALKIILGHMGEGLPYSMWRIDHRNAWIKTTPKYPAKRKIVDYFNENFYLTTSGNFRTQTLIDAILEIGADRILFSTDWPFENIDHAADWFENTSISEADRKKIGWGNAQNLFKLNR
modifications: Dicamba decarboxylase variant clone DC.30.007
B3: 120 (protein)
chain: MAIIDCHGHYTTTPKGVETYRNAQKAAVAKDPSFKYEKGQVVVSDDEIRESIENNQLKMQRERGTDLTIFSPRSTAGGHHIGNEYTSQFWTEHQNDLIRRVCDLFPKNFAPVAQLPQSPGVDPAKSVPEIVRTVEQMGFIGINLNPDPSGGYWKDTSLADRAFYPIYEKMVEYDIPAMIHPRNACNDCFHTTGSHALGADTTGFQQLIMSDVFKDFPSLKIIIPHGGGAVPYHWGRFRGLMQDQGYAPLEESALKNIYFDTCVYHQRGIDLLLDIVPTQNILFASEMIGAVRGIDAETGHNFDDTKRYIDNNTALNAEEKAMIFEGNARRVFSRLKTD
modifications: Dicamba decarboxylase variant clone DC.12.002
B4: 95 (protein, listed as Pseudomonas fluorescens)
chain: MAKKPRIDMHSHFFPRISEQEAAKFDANHAPWLQVSAKGDTGSIMMGKNNFRPVYQALWDPAFRIEEMDAQGVDVQVTCATPVMFGYTWEANKAAQWAERMNDFALEFAAHNPQRIKVLAQVPLQDLDLACKEASRAVAAGHLGIQIGNHLGDKDLDDATLEAFLTHCANEDIPILVHPWDMMGGQRMKKWMLPWLVAMPAETQLAILSLILSGAFERIPKSLKICFGHGGGSFAFLLGRVDNAWRHRDIVREDCPRPPSEYVDRFFVDSAVFNPGALELLVSVMGEDRVMLGSDYPFPLGEQKIGGLVLSSNLGESAKDKIISGNASKFFNINV
B5: 117 (protein)
chain: B4 chain with W195V, M199A, T203V, G228A, H229G, R240I, N243L, A271L, L300T
modifications: Dicamba decarboxylase variant clone DC.5.008
B6: 115 (protein)
chain: MAQGKVALEEHFAIPDTLTTYTTSGDYEKELKHRLLDIQDTRLKLMDAHGIETMILSLNAPGVQAIPDRRKAIEIARRANDVLAEECAKRPDRFLAFAALPLQDPDAATEELQRCVNDLGFVGALVNGFSQEGDGQTPLYYDLPQYRPFWGEVEKLDVPFYLHPRNPLPQDSRIYDGHPWLLGPTWAFAQETAVHALRLMASGLFDEHPRLNIILGHMGEGLPYMMWRIDHRNAWVKTPPRYPAKRRFMDYFNENFHITTSGNFRTQTLIDAILEIGADRILFSTDWPFENIDHASDWFNATSIAEADRVKIGRTNARRLFKLDGA
modifications: Dicamba decarboxylase variant clone DC.4.161
B7: 100 (protein, listed as Reinekea blandensis)
chain: MAIIDCHGHYTTTPKGVEDYRNAQKAAVAKDPSFKGEKGQVVVSDDEIRESIENNQLKMQRERGTDLTIFSPRASWMGHHIGNEYTSQFWTEHQNDLIRRVCDLFPKNFAPVAQLPQSPGVDPAKSVPEIVRTVEQMGFIGINLNPDPSGGYWKDTSLADRAFYPIYEKMVEYDIPAMIHVSAACNDCFHTTGSHYLGADTTGFQQLIMSDVFKDFPSLKIIIPHGGGAVPYHWGRFRGLMQDQGYAPLEESALKNIYFDTCVYHQRGIDLLLDIVPTQNILFASEMIGAVRGIDPETGHNFDDTKRYIDNNTALNAEEKAMIFEGNARRVFSRLKTD
B8: 122 (protein)
chain: B3 chain with T19D, Y36G, E286D, A296P
modifications: Dicamba decarboxylase variant clone DC.12.103
B9: 41 (protein, listed as Polaromonas sp.)
chain: MANGKIALEEHFATEETLMDSAGFVPDKDWPELRSRLLDIQDRRVRLMDEHGIETMILSLNAPAVQAIADSTRANETARRANDFLAEQVAKQPTRFRGFAALPMQDPELAARELERCVKELGFVGALVNGFSQDNRSAVPLYYDMAQYWPFWETVQALDVPFYLHPRNPLPSDARIYDGHAWLLGPTWAFGQETAVHALRLMGSGLFDKYPALKIILGHMGEGLPYSMWRIDHRNAWIKTTPKYPAKRKIVDYFNENFYLTTSGNFRTQTLIDAILEIGADRILFSTDWPFENIDHAADWFENTSISEADRKKIGWGNAQNLFKLNR
B10: 111 (protein)
chain: MAQGKVALEEHFAIPETLQDSMGFVPGDYWKELMHRLLDIQDTRLKLMDAHGIETMILSLNAPAVQAIPDRRKAIEIARRANDVLAEECAKRPDRFLAFAALPLQDPDAATEELQRCVNDLGFVGALVNGFSQEGDGQTPLYYDLPQYRPFWGEVEKLDVPFYLHPRNPLPQDSRIYDGHPWLLGPTWAFAQETAVHALRLMASGLFDEHPRLNIILGHMGEGLPYMMWRIDHRMAWIKLPPRYPAKRRFMDYFNENFHITTSGNFRTQTLIDAILEIGADRILFSTDWPFENIDHASDWFNATSIAEADRVKIGRTNARRLFKLDGA
modifications: Dicamba decarboxylase variant clone DC.4.112
B11: 114 (protein)
chain: B10 chain with M22A, F24A, M34Q, M235V, I238V
modifications: Dicamba decarboxylase variant clone DC.4.116
B12: 112 (protein)
chain: B10 chain with M22A, M34V, M235V, I238V
modifications: Dicamba decarboxylase variant clone DC.4.113
B13: 113 (protein)
chain: B10 chain with M22A, W30L, M34F, M235V, I238V
modifications: Dicamba decarboxylase variant clone DC.4.114
B14: 110 (protein)
chain: B10 chain with I238V
modifications: Dicamba decarboxylase variant clone DC.4.111
B15: 118 (protein)
chain: MAKKPRIDMHSHFFPRISEQEAAKFDANHAPWLQVSAKGDTGSIMMGKNNFQPVYQALWDPAFRIEEMDAQGVDVQVTCATPVMFGYTWEANKAAQWAERMNDFALEFAAHNPQRIKVLAQVPLQDLDLACKEASRAVAAGHLGIQIGNHLGDKDLDDATLEAFLTHCANEDIPILVHGTDMMGGQRMKKWGLPWLVALAAEVQLAILSLILSGAFERIPKSLKICFSHGGGSFAFLLGLVDEAWRHVDIVREDCPRPPSEYVDRFFVDSVGNPGALELLVSVMGEDRVMLGSDYPHTTGEQKIGGLVLSSNLGESAKDKIISGNASKFFNINV
modifications: Dicamba decarboxylase variant clone DC.5.033
B16: 119 (protein)
chain: B15 chain with T180W, P194Y, L199H, A200H, L237T, L240W, H297L
modifications: Dicamba decarboxylase variant cloneDC.5.034

How the values were obtained:
[1] = Dicamba decarboxylation activity of computationally designed protein variants; conditions: for Percent Activity Improvement Over Parent (%): parent SEQ ID NO:1 or SEQ ID NO:41 listed as 100
[2] = 14C assay with IPTG-induced recombinant E. coli cells (14CO2 capture from [14C]-carboxyl-labeled dicamba); conditions: for Enzymatic Detection level: dicamba decarboxylation activity of the protein of the given SEQ ID NO; for Dicamba Decarboxylase Activity: IPTG-induced recombinant E. coli cells, [14C]-carboxyl-labeled dicamba, 14CO2 capture
[3] = Table 4, variants designed to introduce activity
[4] = Table 5, designed variants with improved activity

Molecule | Dicamba Decarboxylation activity [1, 3] | Enzymatic Detection level [2] | Dicamba Decarboxylation activity [1, 4] | Percent Activity Improvement Over Parent (%) [1] | Dicamba Decarboxylase Activity [2]
B1 | Yes | High | – | – | –
B2 | – | High | Yes | 220% | –
B3 | Yes | High | – | – | –
B4 | No | No | – | – | No
B5 | Yes | High | – | – | –
B6 | – | High | Yes | 202% | –
B7 | No | No | – | – | No
B8 | Yes | High | – | – | –
B9 | – | High | Yes | 100% | High
B10 | – | High | Yes | 237% | –
B11 | – | High | Yes | 221% | –
B12 | – | High | Yes | 219% | –
B13 | – | High | Yes | 224% | –
B14 | – | High | Yes | 277% | –
B15 | Yes | High | – | – | –
B16 | Yes | High | – | – | –
